Test results published in PMC10100567.

Target: high-affinity IgE receptor FcεRI on the surface of RBL-2H3 cells (rat (endogenous in RBL-2H3))
Experiment: Ligand Tracer

Kd: 1.3 nM
Substance: Cy5-labeled monoclonal mouse anti-DNP IgE (clone SPE-7) (antibody)
